Target: 17b (CD4-induced human monoclonal antibody)
Assay: flow cytometry of transfected 293T cells: staining with 10 μg/ml 17b with or without sCD4-183, detection with APC anti-human IgG F(ab')2, arithmetic mean APC fluorescence of live (propidium iodide negative) single cells; 'All titrations …
Conditions: sCD4-183 at 0, 0.078125, 0.3125, 1.25, 5, 20, 80 μM (row value in value_extra.sCD4_183_uM), 20 min staining at room temperature, CAUTION: 17b staining of cell-surface trimers with sCD4, mostly reports trimer opening, normalized per Env, one titration each. Higher = more 17b staining of cell-surface Env. 17b's epitope is exposed, numbering: unknown, sequence starts at 1
[1] = AUC over sCD4-183 0-80 μM, parent: 0.907, scale: area under the normalized MFI curve, log10 x-axis
[2] = sCD4-183 0 μM, parent: 0.0187, scale: normalized MFI
[3] = sCD4-183 0.078125 μM, parent: 0.0465, scale: normalized MFI
[4] = sCD4-183 0.3125 μM, parent: 0.0578, scale: normalized MFI
[5] = sCD4-183 1.25 μM, parent: 0.0973, scale: normalized MFI
[6] = sCD4-183 5 μM, parent: 0.198, scale: normalized MFI
[7] = sCD4-183 20 μM, parent: 0.585, scale: normalized MFI
[8] = sCD4-183 80 μM, parent: 1, scale: normalized MFI

Q: “HIV-1 JR-CSF envelope glycoprotein gp160 (Env), P20871 JR-CSF_V127A” was tested. Which screen value [1] did it give?
A: 2.51

Q: And the screen value [2]?
A: 0.217

Q: What about the screen value [3] of the same substance?
A: 0.347

Q: What about the screen value [4] of the same substance?
A: 0.491

Q: And the screen value [5]?
A: 0.715

Q: And the screen value [6]?
A: 0.915

Q: What about the screen value [7] of the same substance?
A: 1

Q: What about the screen value [8] of the same substance?
A: 0.951

Q: “HIV-1 JR-CSF envelope glycoprotein gp160 (Env), P20871 JR-CSF_T320A” was tested. Which screen value [1] did it give?
A: 2.47

Q: And the screen value [2]?
A: 0.13

Q: And the screen value [3]?
A: 0.297

Q: And the screen value [4]?
A: 0.477

Q: And the screen value [5]?
A: 0.754

Q: And the screen value [6]?
A: 0.942

Q: What about the screen value [7] of the same substance?
A: 1

Q: What about the screen value [8] of the same substance?
A: 0.974

Q: “HIV-1 JR-CSF envelope glycoprotein gp160 (Env), P20871 JR-CSF_Y318A” was tested. Which screen value [1] did it give?
A: 2.53

Q: What about the screen value [2] of the same substance?
A: 0.234

Q: What about the screen value [3] of the same substance?
A: 0.39

Q: And the screen value [4]?
A: 0.538

Q: What about the screen value [5] of the same substance?
A: 0.703

Q: What about the screen value [6] of the same substance?
A: 0.901

Q: And the screen value [7]?
A: 0.923

Q: What about the screen value [8] of the same substance?
A: 1

Q: How did the screen value [1] turn out when “HIV-1 JR-CSF envelope glycoprotein gp160 (Env), P20871 JR-CSF_K305A” was run?
A: 2.6

Q: And the screen value [2]?
A: 0.182

Q: What about the screen value [3] of the same substance?
A: 0.383

Q: What about the screen value [4] of the same substance?
A: 0.554

Q: What about the screen value [5] of the same substance?
A: 0.754

Q: And the screen value [6]?
A: 0.935

Q: What about the screen value [7] of the same substance?
A: 1

Q: What about the screen value [8] of the same substance?
A: 0.978

Q: Which results are given for “HIV-1 JR-CSF envelope glycoprotein gp160 (Env), P20871 JR-CSF_Y173A”?
A: screen value [1]: 1.72; screen value [2]: 0.137; screen value [3]: 0.199; screen value [4]: 0.265; screen value [5]: 0.357; screen value [6]: 0.533; screen value [7]: 0.862; screen value [8]: 1

Q: What does the source list for “HIV-1 JR-CSF envelope glycoprotein gp160 (Env), P20871 JR-CSF_N301A”?
A: screen value [1]: 2.59; screen value [2]: 0.178; screen value [3]: 0.314; screen value [4]: 0.564; screen value [5]: 0.801; screen value [6]: 0.974; screen value [7]: 0.958; screen value [8]: 1

Q: What does the source list for “HIV-1 JR-CSF envelope glycoprotein gp160 (Env), P20871 JR-CSF_Y384A”?
A: screen value [2]: 0.03; screen value [3]: 0.141; screen value [4]: 0.264; screen value [5]: 0.357; screen value [6]: 0.491; screen value [7]: 0.712; screen value [8]: 1

Q: For “HIV-1 JR-CSF envelope glycoprotein gp160 (Env), P20871 JR-CSF_T303A”, which screen value [1] is on record?
A: 2.51

Q: What about the screen value [2] of the same substance?
A: 0.128

Q: What about the screen value [3] of the same substance?
A: 0.303

Q: What about the screen value [4] of the same substance?
A: 0.493

Q: What about the screen value [5] of the same substance?
A: 0.793

Q: What about the screen value [6] of the same substance?
A: 0.976

Q: And the screen value [7]?
A: 1

Q: And the screen value [8]?
A: 0.93

Q: For “HIV-1 JR-CSF envelope glycoprotein gp160 (Env), P20871 JR-CSF_N197K”, which screen value [1] is on record?
A: 2.29

Q: What about the screen value [2] of the same substance?
A: 0.116

Q: What about the screen value [3] of the same substance?
A: 0.231

Q: What about the screen value [4] of the same substance?
A: 0.402

Q: And the screen value [5]?
A: 0.643

Q: And the screen value [6]?
A: 0.91

Q: What about the screen value [7] of the same substance?
A: 1

Q: What about the screen value [8] of the same substance?
A: 0.993

Q: How did the screen value [1] turn out when “HIV-1 JR-CSF envelope glycoprotein gp160 (Env), P20871 JR-CSF_H308A” was run?
A: 0.82

Q: And the screen value [2]?
A: 0.0195

Q: And the screen value [3]?
A: 0.0512

Q: And the screen value [4]?
A: 0.0642

Q: And the screen value [5]?
A: 0.0948

Q: And the screen value [6]?
A: 0.178

Q: And the screen value [7]?
A: 0.449

Q: And the screen value [8]?
A: 1

Q: “HIV-1 JR-CSF envelope glycoprotein gp160 (Env), P20871 JR-CSF_W112A” was tested. Which screen value [1] did it give?
A: 1.64

Q: And the screen value [2]?
A: 0.00342

Q: What about the screen value [3] of the same substance?
A: 0.153

Q: And the screen value [4]?
A: 0.255

Q: What about the screen value [5] of the same substance?
A: 0.378

Q: What about the screen value [6] of the same substance?
A: 0.566

Q: What about the screen value [7] of the same substance?
A: 0.852

Q: What about the screen value [8] of the same substance?
A: 1

Q: Which results are given for “HIV-1 JR-CSF envelope glycoprotein gp160 (Env), P20871 JR-CSF_I323A”?
A: screen value [1]: 2.75; screen value [2]: 0.211; screen value [3]: 0.421; screen value [4]: 0.606; screen value [5]: 0.838; screen value [6]: 0.988; screen value [7]: 1; screen value [8]: 0.946

Q: Which screen value [1] does the source give for “HIV-1 JR-CSF envelope glycoprotein gp160 (Env), P20871 JR-CSF_S199A” here?
A: 2.18

Q: And the screen value [2]?
A: 0.0532

Q: And the screen value [3]?
A: 0.183

Q: And the screen value [4]?
A: 0.348

Q: What about the screen value [5] of the same substance?
A: 0.593

Q: What about the screen value [6] of the same substance?
A: 0.931

Q: What about the screen value [7] of the same substance?
A: 0.997

Q: And the screen value [8]?
A: 1

Q: Which screen value [1] does the source give for “HIV-1 JR-CSF envelope glycoprotein gp160 (Env), P20871 JR-CSF_N156A” here?
A: 2.72

Q: What about the screen value [2] of the same substance?
A: 0.272

Q: And the screen value [3]?
A: 0.437

Q: What about the screen value [4] of the same substance?
A: 0.595

Q: And the screen value [5]?
A: 0.796

Q: What about the screen value [6] of the same substance?
A: 0.913

Q: What about the screen value [7] of the same substance?
A: 1

Q: And the screen value [8]?
A: 0.984

Q: For “HIV-1 JR-CSF envelope glycoprotein gp160 (Env), P20871 JR-CSF_E172A”, which screen value [2] is on record?
A: 0.0468

Q: What about the screen value [3] of the same substance?
A: 0.104

Q: What about the screen value [4] of the same substance?
A: 0.136

Q: What about the screen value [5] of the same substance?
A: 0.175

Q: And the screen value [6]?
A: 0.305

Q: And the screen value [7]?
A: 0.636

Q: And the screen value [8]?
A: 1

Source: publication PMC11774494
